Patent US11572572B2, “A138T mutation-containing plant EPSPS mutant, and encoding gene and application thereof” (GEVOTO LLC, priority 2017, dated 2023)

How the values were obtained:
[1] = tested on: transgenic rice seedlings; assay: Glyphosate resistance of EPSPS mutants in transgenic rice sprayed with glyphosate (Example 8); type: in vivo, rice (Nipponbare)
[2] = tested on: double-knockout Escherichia coli (EDCE); assay: Growth of double-knockout E. coli (EDCE) transformed with Triticum aestivum EPSPS genes in glyphosate media (Example 7); type: cell-based
Protocol: An Escherichia coli strain transformed with the Triticum aestivum EPSPS mutant-encoding gene according to Example 4 was used as an experimental group.
An Escherichia coli strain transformed with a wild-type Triticum aestivum EPSPS-encoding gene (SEQ ID NO: 20, encoding wild-type Triticum aestivum EPSPS set forth in SEQ ID NO: 10 was used as Control Group 1.
The growth statuses of the transformed Escherichia coli strains in media containing different concentrations of glyphosate (0, 1, 20 mM) were detected to verify the glyphosate resistance of the Triticum aestivum EPSPS mutant-encoding gene and the encoded Triticum aestivum EPSPS mutant in Escherichia coli. Here, the Escherichia coli strain used was double-knockout Escherichia coli (Escherichia coli strain DH5a from which an EPSPS gene and a C-P Lyase gene were knocked out, named EDCE, which may be prepared by a method with reference to Chinese Patent Application. 2016103256926).

[3] = 1X dose glyphosate (1,060 g/ha), day 10 after spraying
[4] = 2X dose glyphosate (2,120 g/ha) on survivors of 1X, after another 10 days
[5] = 5X dose glyphosate (5,300 g/ha) on survivors of 2X, after additional 10 days
[6] = 20X dose glyphosate (21,200 g/ha) on survivors of 5X, after further 10 days

B1: T2: Triticum aestivum EPSPS mutant containing G113(96)A, P118(101)S, and A157(138)T (SEQ ID NO: 11), gene SEQ ID NO: 22; experimental group of Example 7 (protein)
chain: MATSVAAPAAPAGAEEVVLQPIREISGAVQLPGSKSLSNRILLLSALSEGTTVVDNLLNSEDVHYMLEALEALGLSVEADKVAKRAVVVGCGGRFPVEKDAKEEVKLFLGNAATAMRSLTAAVVAAGGNATYVLDGVPRMRERPIGDLVVGLQQLGTDVDCFLGTNCPPVRINGKGGLPGGKVKLSGSISSQYLSSLLMAAPLALEDVEIEIIDKLISVPYVEMTLKLMEHFGVTAEHSDSWDRFYIKGGQKYKSPGNAYVEGDASSASYFLAGAAITGGTVTVEGCGTTSLQGDVKFAEVLEMMGAKVTWTDTSVTVTGPPRQPFGRKHLKAVDVNMNKMPDVAMTLAVVALFADGPTAIRDVASWRVKETERMVAIRTELTKLGATVEEGPDYCIITPPEKLNITAIDTYDDHRMAMAFSLAACAEVPVTIRDPGCTRKTFPNYFDVLSTFVKN
modifications: Triticum aestivum EPSPS mutant with mutations G113(96)A, P118(101)S, and A157(138)T
% ++&+++ (percentage of moderately and highly glyphosate resistant plants in total plants observed) [1, 3]: 75.0%
plant number with resistance + (low glyphosate resistant) [1, 3]: 2
plant number with resistance ++ (moderately glyphosate resistant) [1, 3]: 4
plant number with resistance +++ (highly glyphosate resistant) [1, 3]: 20
% ++&+++ (percentage of moderately and highly glyphosate resistant plants in total plants observed) [1, 4]: 59.4%
plant number with resistance + (low glyphosate resistant) [1, 4]: 3
plant number with resistance ++ (moderately glyphosate resistant) [1, 4]: 2
plant number with resistance +++ (highly glyphosate resistant) [1, 4]: 17
plant number with resistance − (non-glyphosate resistant, withered or dead) [1, 4]: 10
% ++&+++ (percentage of moderately and highly glyphosate resistant plants in total plants observed) [1, 5]: 50.0%
plant number with resistance + (low glyphosate resistant) [1, 5]: 5
plant number with resistance ++ (moderately glyphosate resistant) [1, 5]: 14
plant number with resistance +++ (highly glyphosate resistant) [1, 5]: 2
plant number with resistance − (non-glyphosate resistant, withered or dead) [1, 5]: 11
% ++&+++ (percentage of moderately and highly glyphosate resistant plants in total plants observed) [1, 6]: 21.9%
plant number with resistance + (low glyphosate resistant) [1, 6]: 11
plant number with resistance ++ (moderately glyphosate resistant) [1, 6]: 7
plant number with resistance +++ (highly glyphosate resistant) [1, 6]: 0
plant number with resistance − (non-glyphosate resistant, withered or dead) [1, 6]: 14
level of glyphosate resistance of transformed rice seedlings compared with the mutant lacking the A138T mutation (R4 for R5, T1 for T2) (in words) ([1]; each of 1×, 2×, 5×, and 20× glyphosate doses): higher levels of glyphosate resistance
glyphosate concentration of medium in which the E. coli strain was kept in a growing state [2]: up to 20 mM
